In US20040044182A1 (published 2004):

Target: T1, β2m (12 kDa non-polymorphic light chain) (human, UniProt P61769 21-119)
T1 construct: No recombinant β2m was added; It came from the human HEK293 cells and co-purified under native conditions; also called beta-2-microglobulin
Assay: immunoblot of the purified protein with anti-β2m antibody (co-purification under native conditions)
Description: Human leukocyte antigens are heterodimeric molecules comprised of glycosylated heavy chains non-covalently associated with a 12 kDa non-polymorphic light chain called β2m. PurifiedrsHLA-G1 (10 to 100 ng) and rsHLA-G2 (10 to 1000 ng) were separated on 15% SDS-PAGE, transferred to nitrocellulose membranes and immuno-detected with anti-Flag M1 antibody or anti-β2m, as shown in FIG. 6. Only rsHLA-G1 was positive for β2m. […] To produce the immunoblot of FIG. 6, purified recombinant sHLA-G1 (10-100 ng) and purified recombinant sHLA-G2 (10-1000 ng) were separated using 15% PAGE-SDS and electrotransferred to nitrocellulose membranes. One blot was detected with anti-Flag-M1 antibody and the other with a mouse anti-β2m. This experiment provides evidence that sBLA-G2 is produced as free alpha chains, while sHLA-G1 is bound to β2m.

T1 sequence (P61769 21-119 limits assumed): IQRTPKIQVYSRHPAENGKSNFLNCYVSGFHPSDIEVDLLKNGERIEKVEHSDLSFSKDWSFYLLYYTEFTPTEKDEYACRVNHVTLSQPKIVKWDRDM

B1: recombinant soluble HLA-G2 (other)
MHC heavy: APLADYKDDDDKLAGSHSMRYFSAAVSRPGRGEPRFIAMGYVDDTQFVRFDSDSACPRMEPRAPWVEQEGPEYWEEETRNTKAHAQTDRMNLQTLRGYYNQSEANPPKTHVTHHPVFDYEATLRCWALGFYPAEIILTWQRDGEDQTQDVELVETRPAGDGTFQKWAAVVVPSGEEQRYTCHVQHEGLPEPLMLRWSKEGDGGIMSVRESRSLSEDL
modifications: glycosylated
notes: Secreted from HEK293 cells; The first amino acid of the α3 domain is asparagine, not aspartic acid as in sHLA-G1; Produced as free alpha chains; also called rsHLA-G2; sHLA-G2
binding result: no binding (tested: up to 1 µg)
